In IntAct's records for PubMed 23569223:

B1: Torsin-1A (Homo sapiens), O14656 (parent)
chain: MKLGRAVLGLLLLAPSVVQAVEPISLGLALAGVLTGYIYPRLYCLFAECCGQKRSLSREALQKDLDDNLFGQHLAKKIILNAVFGFINNPKPKKPLTLSLHGWTGTGKNFVSKIIAENIYEGGLNSDYVHLFVATLHFPHASNITLYKDQLQLWIRGNVSACARSIFIFDEMDKMHAGLIDAIKPFLDYYDLVDGVSYQKAMFIFLSNAGAERITDVALDFWRSGKQREDIKLKDIEHALSVSVFNNKNSGFWHSSLIDRNLIDYFVPFLPLEYKHLKMCIRVEMQSRGYEIDEDIVSRVAEEMTFFPKEERVFSDKGCKTVFTKLDYYYDD

Variants of: B1
Details: with toip2_human TOR1AIP2, Q8NFQ8
For MKLGRAVLGLLLLAPSVVQAVEPISLGLALAGVLTGYIYPRLYCLFAECCGQKRSLSREALQKDLDDNLFGQHLAKKIILNAVFGFINNPKPKKPLTLSLHGWTGTGKNFVSKIIAENIYEGGLNSDYVHLFVATLHFPHASNITLYKDQLQLWIRGNVSACARSIFIFDQMDKMHAGLIDAIKPFLDYYDLVDGVSYQKAMFIFLSNAGAERITDVALDFWRSGKQREDIKLKDIEHALSVSVFNNKNSGFWHSSLIDRNLIDYFVPFLPLEYKHLKMCIRVEMQSRGYEIDEDIVSRVAEEMTFFPKEERVFSDKGCKTVFTKLDYYYDD [E171Q], the “effect of a mutation on the interaction” value was “with no effect”.

Variants of: B1
Details: with toip1_human TOR1AIP1, Q5JTV8
Chain of toip1_human TOR1AIP1, Q5JTV8 (Q5JTV8 whole entry): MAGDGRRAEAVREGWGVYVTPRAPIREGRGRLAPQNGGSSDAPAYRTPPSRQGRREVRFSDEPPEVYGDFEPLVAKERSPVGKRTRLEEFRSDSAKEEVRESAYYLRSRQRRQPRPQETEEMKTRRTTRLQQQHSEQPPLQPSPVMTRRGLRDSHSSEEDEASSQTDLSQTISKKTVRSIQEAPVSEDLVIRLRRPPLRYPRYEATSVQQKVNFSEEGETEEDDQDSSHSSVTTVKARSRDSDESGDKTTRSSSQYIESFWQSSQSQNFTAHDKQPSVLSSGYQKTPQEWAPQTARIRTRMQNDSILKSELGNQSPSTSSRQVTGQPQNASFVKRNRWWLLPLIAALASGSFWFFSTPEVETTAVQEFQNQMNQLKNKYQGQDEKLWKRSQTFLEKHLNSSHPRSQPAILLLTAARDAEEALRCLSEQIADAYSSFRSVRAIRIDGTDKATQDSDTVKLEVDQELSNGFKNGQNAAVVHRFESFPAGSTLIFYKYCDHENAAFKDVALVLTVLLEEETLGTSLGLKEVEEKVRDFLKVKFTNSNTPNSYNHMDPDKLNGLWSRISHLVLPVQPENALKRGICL
In the case of MKLGRAVLGLLLLAPSVVQAVEPISLGLALAGVLTGYIYPRLYCLFAECCGQKRSLSREALQKDLDDNLFGQHLAKKIILNAVFGFINNPKPKKPLTLSLHGWTGTGKNFVSKIIAENIYEGGLNSDYVHLFVATLHFPHASNITLYKDQLQLWIRGNVSACARSIFIFDQMDKMHAGLIDAIKPFLDYYDLVDGVSYQKAMFIFLSNAGAERITDVALDFWRSGKQREDIKLKDIEHALSVSVFNNKNSGFWHSSLIDRNLIDYFVPFLPLEYKHLKMCIRVEMQSRGYEIDEDIVSRVAEEMTFFPKEERVFSDKGCKTVFTKLDYYYDD [E171Q], the “effect of a mutation on the interaction” value is reported as “with no effect”.
